A short description of series [1]: Optimum pH and heat deactivation of MKK7. The class given is physicochemical. On the procedure:
In addition to MKK7, MKK6 and SEK1 were used as the MAPK kinase, and MAPK, SAPK, p38 and SAPK3 were used as the MAP kinase. A MAPK kinase gene and a MAP kinase gene were cotransfected to a cell in different combinations, and the activity of the MAP kinase in vivo was determined by measuring the amount of a substrate (for the transfected MAP kinase) phosphorylated by the cotransfected cells. […] From this experiment, it has become apparent that the optimum pH for MKK7 is in the range of from pH 7 to 8, and MKK7 is deactivated at 70° C. or higher.

Series [2] addresses T1, SAPK3 (Mus musculus, UniProt O08911).
T1 construct: His (N); made in house; host or cells: E. coli
T1 sequence (O08911 1-367): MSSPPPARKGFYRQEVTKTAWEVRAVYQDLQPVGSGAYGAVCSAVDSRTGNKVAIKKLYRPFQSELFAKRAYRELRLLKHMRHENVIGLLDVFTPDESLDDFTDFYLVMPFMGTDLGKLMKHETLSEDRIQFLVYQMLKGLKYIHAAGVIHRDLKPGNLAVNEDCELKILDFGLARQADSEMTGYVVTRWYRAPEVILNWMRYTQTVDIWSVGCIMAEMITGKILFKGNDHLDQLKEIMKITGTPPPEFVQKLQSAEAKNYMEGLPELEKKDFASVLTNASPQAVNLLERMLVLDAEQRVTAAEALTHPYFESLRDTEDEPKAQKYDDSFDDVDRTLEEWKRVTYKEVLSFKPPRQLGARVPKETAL
The experiment in a line: Activation of MAP kinase by recombinant MAPK kinase in vitro, substrate phosphorylation by autoradiography. The class given is biochemical. The conditions noted are these: 0.1 μg MAPK kinase, 0.5 μg His-SAPK3, 30° C. 30 minutes. The method, then: (§1) 0.1 μg of a MAPK kinase (His-MKK7, GST-SEK1 and His-MKK6 were separately used) and 0.5 μg of a MAP kinase (His-MAPK, His-SAPK, His-p38 and His-SAPK3 were separately used), both prepared in item (1) above, were incubated with 10 μl of a solution containing 100 μM ATP, 20 mM MgCl2, 2 mM EGTA and 20 mM Tris-HCl (pH 7.5) at 30° C. for 30 minutes, to thereby activate the MAP kinase. Subsequently, 5 μl of a solution containing a substrate for the MAP kinase and 1 μCi of [γ-^32P] ATP (manufactured and sold by Amersham International, England) was added to the mixture, and further incubated at 20° C. for 20 minutes. As a substrate for the MAP kinase, 3 μg of myelin basic protein (MBP) was used for MAPK and SAPK3, 3 μg of GST-cJun (1-79) was used for SAPK, and 3 μg of ATF-2 was used for p38. The MBP used as the substrate was obtained by purifying Brain Acetone Powder (manufactured and sold by Sigma, USA), and ATF-2 was a kind gift of Dr. Suzanne J. Baker and Dr. Tom Curran (St. Jude Children's Research Hospital). After incubation, a sample was obtained from each incubated mixture and resolved on SDS-polyacrylamide gel electrophoresis. Then, the radioactivity of each of MBP, c-Jun and ATF-2 was detected by autoradiography.

The target in series [3] is T2, SAPK (Mus musculus, UniProt Q9WTU6).
T2 construct: His (N); made in house; host or cells: E. coli
Described as above. In kind it is biochemical. The conditions noted are these: 0.1 μg MAPK kinase, 0.5 μg His-SAPK, 30° C. 30 minutes; substrate GST-cJun (1-79). On the procedure: as §1

In series [4] the target is T3, p38 (Mus musculus, UniProt P47811).
T3 construct: His (N); made in house; host or cells: E. coli
T3 sequence (P47811 whole entry): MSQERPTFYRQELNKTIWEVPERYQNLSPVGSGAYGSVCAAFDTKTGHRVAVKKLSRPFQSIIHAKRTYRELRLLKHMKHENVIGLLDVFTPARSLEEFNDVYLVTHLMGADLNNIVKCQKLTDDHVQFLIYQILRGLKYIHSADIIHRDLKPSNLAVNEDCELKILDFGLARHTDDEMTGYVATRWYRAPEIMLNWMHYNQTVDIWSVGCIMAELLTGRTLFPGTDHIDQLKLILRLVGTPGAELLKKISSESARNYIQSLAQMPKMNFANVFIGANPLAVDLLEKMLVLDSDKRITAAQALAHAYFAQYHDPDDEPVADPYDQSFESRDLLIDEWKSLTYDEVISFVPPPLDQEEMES
The description is as above. The class given is biochemical. Particulars: 0.1 μg MAPK kinase, 0.5 μg His-p38, 30° C. 30 minutes; substrate ATF-2. On the procedure: as §1

Series [5] relates to SAPK/JNK. The experiment in a line: Inhibition of TNF-α-induced SAPK activation by the dominant negative form of MKK7 in KB cells. Particulars: KB cells cotransfected with pSRα-HA-SAPKα and pSRα-MKK7KL; TNF-α 100 ng/ml, 15 minutes; sorbitol- and anisomycin-induced activation not suppressed. The method, then:
KB cells were cotransfected with the vector pSRα-HA-SAPKα (0.5 μg) and either the vector pSRα or the vector pSRα-MKK7KL (1.5 μg) using Lipofectamine (manufactured and sold under the brand of GIBCO BRL, USA). Twenty-four hours after the transfection, TNF-α (100 ng/ml), sorbitol (0.5 M) and anisomycin (100 μg/ml) were individually used to stimulate the transfected cells for 15 minutes. Next, the cell extracts of the stimulated cells were individually prepared as follows. The cells were suspended in 0.7 M NaCl solution and washed once with ice-cold HEPES-buffered saline. Subsequently, the washed cells were homogenized in a buffer containing 20 mM Tris-HCl (pH 7.5), 2 mM EGTA, 25 mM β-glycerophosphate, 2 mM DTT, 1 mM vanadate, 1 mM PMSF and 1% aprotinin, wherein the buffer was used in an amount of 300 μl relative to cells obtained per plate (diameter: 100 mm). The resultant cell homogenate was centrifuged at 1000×g for 3 minutes, followed by a further centrifugation at 400,000×g for 20 minutes, thereby obtaining a supernatant. The obtained supernatant was used as the cell extract.
Each of the cell extracts was individually immunoprecipitated with anti-HA antibody (anti-hemagglutinin antibody) (12CA5), and the kinase activity of HA-SAPK in the immunoprecipitate was determined.

Bounds are passed on as bounds.

B1: mouse MKK7: novel MAPK kinase derived from mouse brain, amino acid sequence SEQ ID NO: 4 (protein)
chain: MAASSLEQKLSRLEAKLKQENREARRRIDLNLDISPQRPRPIIVITLSPAPAPSQRAALQLPLANDGGSRSPSSESSPQHPTPPTRPRHMLGLPSTLFTPRSMESIEIDQKLQEIMKQTGYLTIGGQRYQAEINDLENLGEMGSGTCGQVWKMRFRKTGHIIAVKQMRRSGNKEENKRILMDLDVVLKSHDCPYIVQCFGTFITNTDVFIAMELMGTCAEKLKKRMQGPIPERILGKMTVAIVKALYYLKEKHGVIHRDVKPSNILLDERGQIKLCDFGISGRLVDSKAKTRSAGCAAYMAPERIDPPDPTKPDYDIRADVWSLGISLVELATGQFPYKNCKTDFEVLTKVLQEEPPLLPGHMGFSGDFQSFVKDCLTKDHRKRPKYNKLLEHSFIKHYEILEVDVASWFKDVMAKTESPRTSGVLSQHHLPFFSGSLEESPTSPPSPKSFPLSPAIPQAQAEWVSGR
Consider B1, for which, in series [1], the “optimum pH” value was in the range of 7 to 8 pH and the “temperature at which MKK7 is deactivated” value is not below 70 °C. In addition, the “activation of SAPK3 (phosphorylation of MBP)” value (shortened to “activation of SAPK3”) in series [2] was “did not activate”. The “activation of SAPK (phosphorylation of c-Jun)” value in series [3] is given as “specifically activated”. Moreover, the “activation of p38 (phosphorylation of ATF-2)” value (shortened to “activation of p38”) in series [4] was “did not activate”.

B2: MKK7KL: dominant negative form of mouse MKK7, 165th Lysine (K) substituted with leucine (L), SEQ ID NO: 10 (protein)
chain: MAASSLEQKLSRLEAKLKQENREARRRIDLNLDISPQRPRPIIVITLSPAPAPSQRAALQLPLANDGGSRSPSSESSPQHPTPPTRPRHMLGLPSTLFTPRSMESIEIDQKLQEIMKQTGYLTIGGQRYQAEINDLENLGEMGSGTCGQVWKMRFRKTGHIIAVLQMRRSGNKEENKRILMDLDVVLKSHDCPYIVQCFGTFITNTDVFIAMELMGTCAEKLKKRMQGPIPERILGKMTVAIVKALYYLKEKHGVIHRDVKPSNILLDERGQIKLCDFGISGRLVDSKAKTRSAGCAAYMAPERIDPPDPTKPDYDIRADVWSLGISLVELATGQFPYKNCKTDFEVLTKVLQEEPPLLPGHMGFSGDFQSFVKDCLTKDHRKRPKYNKLLEHSFIKHYEILEVDVASWFKDVMAKTESPRTSGVLSQHHLPFFSGSLEESPTSPPSPKSFPLSPAIPQAQAEWVSGR
On to B2, for which the “TNF-α-induced activation of SAPK/JNK in a cell expressing MKK7KL” value in series [5] is on record as “suppressed”.

B3: mouse SEK1: known MAPK kinase, mouse SEK1 expressed as GST-SEK1 (protein)
chain: MAAPSPSGGGGSGGGGGTPGPIGPPASGHPAVSSMQGKRKALKLNFANPPVKSTARFTLNPNTTGVQNPHIERLRTHSIESSGKLKISPEQHWDFTAEDLKDLGEIGRGAYGSVNKMVHKPSGQIMAVKRIRSTVDEKEQKQLLMDLDVVMRSSDCPYIVQFYGALFREGDCWICMELMSTSFDKFYKYVYSVLDDVIPEEILGKITLATVKALNHLKENLKIIHRDIKPSNILLDRSGNIKLCDFGISGQLVDSIAKTRDAGCRPYMAPERIDPSASRQGYDVRSDVWSLGITLYELATGRFPYPKWNSVFDQLTQVVKGDPPQLSNSEEREFSPSFINFVNLCLTKDESKRPKYKELLKHPFILMYEERTVEVACYVCKILDQMPATPSSPMYVD
modifications: left off: a dimerising Fc or GST
Regarding B3, in series [2], the “activation of SAPK3” value was “activated”. The “activation of SAPK (phosphorylation of c-Jun)” value in series [3] was “activated”. In series [4], the “activation of p38” value is “activated”.

B4: MKK6: known MAPK kinase, human MKK6 expressed as His-MKK6 (protein)
chain: MSQSKGKKRNPGLKIPKEAFEQPQTSSTPPRDLDSKACISIGNQNFEVKADDLEPIMELGRGAYGVVEKMRHVPSGQIMAVKRIRATVNSQEQKRLLMDLDISMRTVDCPFTVTFYGALFREGDVWICMELMDTSLDKFYKQVIDKGQTIPEDILGKIAVSIVKALEHLHSKLSVIHRDVKPSNVLINALGQVKMCDFGISGYLVDSVAKTIDAGCKPYMAPERINPELNQKGYSVKSDIWSLGITMIELAILRFPYDSWGTPFQQLKQVVEEPSPQLPADKFSAEFVDFTSQCLKKNSKERPTYPELMQHPFFTLHESKGTDVASFVKLILGD
modifications: left off: small tags and cut ends
Take B4: the “activation of SAPK3” value in series [2] was “activated”. The “activation of SAPK (phosphorylation of c-Jun)” value in series [3] is recorded as “did not activate”. The “activation of p38” value in series [4] is given as “activated”.

Values taken from patent publication US6465618B1, “Mitogen activated protein kinase (MAPK) kinase” (Asahi Kasei Kabushikiki Kaisha, priority 1997, dated 2002).
